Reference: patent US12194082B2, “Compositions and methods for treatment of homocystinuria” (THE REGENTS OF THE UNIVERSITY OF COLORADO, priority 2016, dated 2025)
“And” between values parts separate entries of the source, which are not always exact repeats. Equal values may be shown once.

Tests used:
[1] = tested on: KO mice; assay: Liver light and electron microscopy of treated KO mice; type: in vivo, mouse; details: 7.5 mg/kg SC 3x/week from 2 days of age, day 17-19
Procedure: The PBS-injected or PEGylated htCBS conjugate, such as 20NHS PEG-htCBS C15S, treated KO mice were sacrificed on day 17-19 and liver samples were processed for histological analysis by optical microscopy. The histological assessment was carried out in a blinded fashion. Livers were removed and were fixed for 24 hours with 4% paraformaldehyde in PBS (pH 7.4). Tissue blocks for histology were trimmed, dehydrated with an ethanol series followed by acetone, acetone-xylene mixture, and xylene, then embedded in paraffin. In parallel, small tissue blocks (around 4 mm×2 mm) fixed with paraformaldehyde were rapidly frozen in petrol ether cooled with dry ice, and stored at −50° C. for detection of apolar lipids. Paraffin sections 4 μm thick were deparaffinized in xylene and after isopropyl alcohol step rehydrated with ethanol (96%, 70%, 60%). Tissue sections were stained with hematoxylin and eosin (H&E) to evaluate histopathological changes. Masson trichrome staining was performed for detection of fibrosis. Steatosis was verified using Oil Red O staining for detection of apolar lipids in fixed-frozen sections that was 10 μm thick and cut with a Leica Cryomicrotome (CM 1850). The sections were viewed and photographed with a Nikon light microscope (E800) equipped with Olympus digital camera (DP70). […]

[2] = Pharmacokinetics of 20NHS PEG-htCBS C15S in rats; details: for AUC/dose corrected to 80% bioavailability / Cmax/dose corrected to 80% bioavailability / tmax: SC
Procedure: CBS activity was determined by a radioisotope assay with C^14-labeled serine as a substrate. Ten μl (total 490 ng) of pure htCBS in dilution buffer (0.1 M Tris-HCl pH=8.6, 1 mM DTT, 10 μM PLP, 0.5 mg/ml BSA) or 10 μl of plasma were added to 85 μl of reaction mixture containing 0.1 M Tris-HCl pH=8.6, 10 mM L-serine, 0.5 mM PLP, 0.5 mg/ml BSA and 0.3 μCi (for pure enzyme) or 0.45 μCi (for plasma) of L-[C^14(U)]-Serine. Samples were incubated for 5 min at 37° C. and reaction was initiated by addition of 5 μl of 0.2 M Hcy (10 mM final concentration). Following 30 min of incubation at 37° C., a 20 μl aliquot of the assay mixture was applied onto a grade 3 CHR Whatman (NJ, USA) paper. Assay initiation and sampling of the resulting mixture were staggered so that each reaction time was 30 minutes. Descending paper chromatography was used to isolate the radioactive product (Cth) from a labeled substrate (Ser). The C^14-cystathionine formed in the reaction was separated from C^14-serine by an overnight descending paper chromatography in 2-propanol/formic acid/H2O (75:5.7:18.9 v/v). Radioactivity in the area of the marker cystathionine (detected by staining the marker lane with ninhydrin) was determined by cutting the chromatogram into strips that were submerged in 5 ml of Opti-fluor scintillation cocktail (PerkinElmer, MA, USA) and counted in a Beckman LS-3801 scintillation counter. An enzyme-free sample was used as a blank to monitor the background radioactivity that was then subtracted from each sample. For pure enzyme, specific activity values are expressed as enzyme units (the amount of enzyme that produces 1 μmol of cystathionine/hour) per mg of CBS, and for plasma samples as units per μl plasma.
The pharmacokinetic (PK) parameters were calculated using a non-compartmental curve stripping model which resolves a curve into a series of exponential terms corresponding to the absorption, distribution and elimination phases occurring during the time course of the enzyme in the blood. The curve stripping approach assumes that the disposition phases of the drug follow apparent first-order kinetics, which is evidenced by the linearity in the terminal portion of a semi-log plot. These calculations were made using a modeling program called PK Solutions 2.0 (Summit Solutions, Montrose, CO) using the mean plasma enzyme activity for each route of administration. The bioavailability was calculated by dividing the area under the curve (AUC) for the SC or IP route by the AUC observed after IV administration.
In order to assess the pharmacokinetics of 20NHS PEG-htCBS C15S in rats, wild-type Sprague Dawley rats were injected with a single dose of 20NHS PEG-htCBS C15S through intra-vascular (IV) or sub-cutaneous (SC) routes. The design of a third (repeated dose) PK study (groups 7-9) was adjusted to allow extraction of data after the first dose and thus their combination with a single dose PK study (groups 1-6).
To further evaluate rats as a species for conducting long-term toxicity studies, the pharmacokinetics of 20NHS PEG-htCBS C15S was determined in three groups of Sprague Dawley rats receiving a total of 9 SC injections every 48 hours of either 4 mg/kg (low), 8 mg/kg (mid), or 24 mg/kg (high) 20NHS PEG-htCBS C15S. […] The experiment was conducted for a length of 24 days.

[3] = tested on: Hcy, Cys; assay: Continuous administration by ALZET osmotic pump in HO mice; type: in vivo; details: ALZET Model 2004 or 2006 pumps
Procedure: ALZET® osmotic pumps provide steady, controlled delivery of the 20NHS PEG-htCBS C15S for a prolonged period of time in fresh and naïve HO mice. The htCBS C15S PEGylated with ME-200GS was administrated using four different models of micro-osmotic ALZET® pumps, which continuously dispensed a volume of enzyme per hour instead of repeated subcutaneous injections: Model 1002 (0.25 μl/h), Model 2002 (0.5 μl/h), Model 2004 (0.25 μl/h), and Model 2006 (0.15 μl/h).
For pain relief, pre- and post-operatively, animals were also administered TYLENOL® (2 mg/ml) in water bottles ad libitum for 48 hours before and after surgery for implantation of the ALZET® pump. In addition, the animals received 5 mg/kg of carprofen subcutaneously every 24 hours, and for 48 hours postoperatively. For anesthesia during surgery, 5% isoflurane was administered by inhalation and maintained at 2-3% during surgery. While mice were anesthetized, they each received a medical grade ALZET® osmotic pump implanted under sterile conditions in a biological safety cabinet. Pumps were implanted subcutaneously in the loose skin area on the ventral side of the neck. Prior to implanting the pump, the mice were shaved and the skin area was prepped with BETADINE®. Pump implantation required a small surgical incision (5 mm) made with sterile scissors. […]

Substance: 20NHS PEG-htCBS C15S: htCBS C15S PEGylated with ME-200GS PEG (20 kDa linear NHS ester-activated PEG)
- liver parenchyma, light microscopy [1]: regular liver architecture and minimal anizokaryosis
- plasma CBS activity on repeated dosing ([2]; 9 SC injections every 48 hours, 4, 8 or 24 mg/kg): substantial decline in peak CBS activities
- AUC/dose corrected to 80% bioavailability ([2]; Rat/Female): 1233 (mU-h/mL)/(mg/kg)
- Cmax/dose corrected to 80% bioavailability ([2]; Rat/Female): 16 (mU/μL)/(mg/kg)
- tmax ([2]; Rat/Female): 29 h
- AUC/dose corrected to 80% bioavailability ([2]; Rat/Male): 1452 (mU-h/mL)/(mg/kg)
- Cmax/dose corrected to 80% bioavailability ([2]; Rat/Male): 17 (mU/μL)/(mg/kg)
- tmax ([2]; Rat/Male): 35 h
- AUC0−t (obs area) ([2]; females, 4 mg/kg IV): 6165 mU-h/μl
- Bioavailability ([2]; females, 4 mg/kg IV): 100%
- MRT (area) ([2]; females, 4 mg/kg IV): 45.5 h
- cp0 ([2]; females, 4 mg/kg IV): 186.2 mU/μl
- AUC0−t (obs area) ([2]; females, 8 mg/kg SC): 4505 mU-h/μl
- Bioavailability ([2]; females, 8 mg/kg SC): 36.5%
- MRT (area) ([2]; females, 8 mg/kg SC): 76.8 h
- cmax ([2]; females, 8 mg/kg SC): 58.2 mU/μl
- tmax (obs) ([2]; females, 8 mg/kg SC): 24 h
- AUC0−t (obs area) ([2]; females, 24 mg/kg SC): 13135 mU-h/μl
- Bioavailability ([2]; females, 24 mg/kg SC): 35.5%
- MRT (area) ([2]; females, 24 mg/kg SC): 79.8 h
- cmax ([2]; females, 24 mg/kg SC): 166.3 mU/μl
- tmax (obs) ([2]; females, 24 mg/kg SC): 48 h
- bioavailability (F %) after SC administration ([2]; male rats, across doses): 19-21% and 20%
- AUC0−t (obs area) ([2]; males, 4 mg/kg IV): 7231 mU-h/μl
- Bioavailability ([2]; males, 4 mg/kg IV): 100%
- MRT (area) ([2]; males, 4 mg/kg IV): 52.9 h
- cp0 ([2]; males, 4 mg/kg IV): 182.1 mU/μl
- AUC0−t (obs area) ([2]; males, 8 mg/kg SC): 2703 mU-h/μl
- Bioavailability ([2]; males, 8 mg/kg SC): 18.7%
- MRT (area) ([2]; males, 8 mg/kg SC): 65.6 h
- cmax ([2]; males, 8 mg/kg SC): 32.7 mU/μl
- tmax (obs) ([2]; males, 8 mg/kg SC): 48 h
- AUC0−t (obs area) ([2]; males, 24 mg/kg SC): 9269 mU-h/μl
- Bioavailability ([2]; males, 24 mg/kg SC): 21.3%
- MRT (area) ([2]; males, 24 mg/kg SC): 66.1 h
- cmax ([2]; males, 24 mg/kg SC): 110.0 mU/μl
- tmax (obs) ([2]; males, 24 mg/kg SC): 38 h
- Cys plasma levels [3]: only a modest increase
- plasma levels of Hcy [3]: substantially reduced
